The supplement of paper PMC9170038

Test system: MS2 coat protein
Assay: apparent KD of MS2 coat protein; designed switch direction (-1 OFF switch, 1 ON switch): -1; higher = weaker reporter binding
Procedure, shortened: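 The reported apparent KD is a per-design median over clusters, from curve fits of normalised cluster fluorescence. Protein titrations used SNAP-549-labelled MS2 coat protein, doubled from 0.7 or 1.5 nM to 3 µM, in Tris-HCl pH 7.5 buffer with KCl, MgCl2, BSA, DTT, tRNA and Tween-20, with no input, 200 uM small-molecule ligand, or an oligonucleotide input. The RNA switches were transcribed on Illumina chips by stalled E. coli RNA polymerase.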

[1] = Eterna round: R95, input ligand: microRNA oligo, concentration not stated
[2] = Eterna round: R95, input ligand: FMN 200 uM
[3] = Eterna round: R95, input ligand: none
[4] = input ligand: microRNA oligo, concentration not stated

Sequence	apparent KD of MS2 coat protein (input ligand: FMN 200 uM) [nM]	apparent KD of MS2 coat protein (input ligand: none) [nM]	apparent KD of MS2 coat protein [1] [nM]	apparent KD of MS2 coat protein [2] [nM]	apparent KD of MS2 coat protein [3] [nM]	apparent KD of MS2 coat protein [4] [nM]
GUCAUGUUAGGAUAUGAGCGGCGACUUAGAAUGUUUGCUACUUAGAAGGAACAUGAGGAUCACCCAUGUUCUAU [EX4 C.14] (Eterna round: R97, puzzle: Exclusion 4)	20.2	17.2	–	–	–	–
CGAUGUUAUGUCAGGAUAUGCGUUGCGAAAGCAAUGCAGAAGGGACAUGAGGAUCACCCAUGUCCUAACCAUCG [Omei A 5] (puzzle: Brourd's mod of Exclusion 4)	–	–	12.7	–	–	–
UUCGUGUGAGGAUAUCGAUUAUGGAAGUCUAGAUCCAUACGCGAGAAGGCACAUGAGGAUCACCCAUGUAAUGG [jl-ex4-4.34 ViennaUCT mod] (Eterna round: R97, puzzle: Exclusion 4)	38	227	–	–	–	–
UUGUUCGAGCGGAGUUCUCACAUGAGGAUCACCCAUGUGCUCGUCUUGUGUGGUUCUGUGGCGUGGUUCGCGGUGCC [Sensor, turn-off variant 1] (Eterna round: R97, puzzle: Sensor, turn-off variant 1)	237	292	–	–	–	–
GACUGGACAGGAUAUGUUCUUGAGCACUUGAGGAUCACCCAAGUCAUCAAGAACUCAGGCACAGAAGGGUUUAUGG [salish99_ex5_r4_010] (Eterna round: R97, puzzle: Exclusion 5)	23.3	12.1	–	–	–	–
GAGGAACAUGAGGAUCACCCAUGUAAGGAUAUGCAUAGCGAGGUAGUAGAAGGUGAAGGCAGAAGGUACACGGA [JR_Exclu1_Sub076] (puzzle: Exclusion 1)	–	–	34.2	31.3	43.8	–
CCAAGCUGUGUGAGGAUAUGCUGGACCUUGGUUCAGCAGAAGGCACAUGAGGAUCACCCAUGUGAAAAGCUUGG [Mat - Exclusion 4 - JL Mod - D94] (puzzle: Brourd's mod of Exclusion 4)	–	–	16.6	47.5	16.4	–
UCUGGUCGAGGAUAUACAUUCGUGCUUCGGCACGUAAGGUCACAUGAGGAUCACCCAUGUAGAAGGCGACCAGA [E2/7-A3] (Eterna round: R97, puzzle: Exclusion 2)	181	38.4	–	–	–	–
UUAAUUAAUAAUUAAGAUCAUUACAUGAGGAUCACCCAUGUCGAGGAUAUCAGCUCGUUUAGAGCUGAGAAGGCGACAAAUUAU [ExNG3/13-B2] (Eterna round: R96, puzzle: Exclusion NG 3)	670	473	–	–	–	411
UAUUCUAGAUAGGAUAUACUUUAUUUUUUUUUCGUAGAAGGAUCUACAUGAGGAUCACCCAUGUUAACAGCAGU [JR_E6_Sub009] (puzzle: Exclusion 6)	–	–	50.5	–	–	–
CACCGUUAAGGAGGAUAUCGUACAUGAGGAUCACCCAUGUAAUAAAUGAGAAUUUCGGAUGUAUGCGAGAAGGCCUAAAUCGGC [Ostracism 44 - Jieux - Exclusion NG 2] (Eterna round: R96, puzzle: Exclusion NG 2)	–	–	–	–	–	34.7
GGUUGGCGAGGAUAUACAUGAGGAUCACCCAUGUGAGACAAAAAAGUGAGGAAGAAAAGUAGAAGGCGCUGACG [salish99_ex3_r3_021] (puzzle: Exclusion 3)	–	–	54.1	362	64.1	–
AUGGGUACUUUCGGAACGACAUGAGGAUCACCCAUGUAUACUGAGGAUAUCCACUACUAAGGACGGGAGAAGGCAGUGUACUGU [Ex NG3 #80] (Eterna round: R96, puzzle: Exclusion NG 3)	27	18.5	–	–	–	12.1
CCCGGGUUAGGAUAUGGGCCCGGGCCCGAAAGGGCCCGGGCCCAGAAGGGACAUGAGGAUCACCCAUGUCCGGG [-53.1, -49.1 kcal, 20% A] (Eterna round: R97, puzzle: Exclusion 4)	22.1	19.9	–	–	–	–
CACCGUUAGAGAGGAUAUCGUACAUGAGGAUCACCCAUGUAAUAAAUGAGAAUUUCGGAUGUAUGCGAGAAGGCUCAAAUCGGC [Ostracism 39 - Jieux - Exclusion NG 2] (Eterna round: R96, puzzle: Exclusion NG 2)	42.1	60	–	–	–	42.5
ACAUGAGGAUCACCCAUGUGACAAGAAUGGCUGAUACAGAGACAGGAUAUAGGUGCAUAUCUAACCUAGAAGGGUCAUGACUGG [Deportation 73 - Jieux - Exclusion NG 3] (Eterna round: R96, puzzle: Exclusion NG 3)	–	–	–	–	–	26.6
GAUUUAGAGCAGGAUAUCAUAGAAAUGUAUGAAUGAGAAGGGCUCACAUGAGGAUCACCCAUGUGGUCCUAGAU [JL Dibiri mod 20] (Eterna round: R96, puzzle: Exclusion 6)	–	–	–	–	–	21.6

Sequence	apparent KD of MS2 coat protein (input ligand: FMN 200 uM) [nM]	apparent KD of MS2 coat protein (input ligand: none) [nM]	apparent KD of MS2 coat protein [1] [nM]	apparent KD of MS2 coat protein [2] [nM]	apparent KD of MS2 coat protein [3] [nM]	apparent KD of MS2 coat protein [4] [nM]
AAUAUACUAGGAUAUACAUGAGGAUCACCCAUGUCCGCAUAUUGGGAUCUUAGACCUUGUAGAAGGAGUGGACG [Eternabot (L2) Solution 15] (Eterna round: R97, puzzle: Exclusion 3)	99.2	97.6	–	–	–	–
CAGUACUGAGGAUAUACAUGAGGAUCACCCAUGUUAGAGAUACUAGUGAGGUCGAUUAGUAGAAGGCAGUACUG [Mat X3R4 m24] (Eterna round: R97, puzzle: Exclusion 3)	557	44.9	–	–	–	–
UAUUAACAAGCAAGAUCCUACAUGAGGAUCACCCAUGUGUUCGUCUUAUAAGGUACUGUGACGAAAGUCACGGUACC [Sensor 3, v1 - 75] (puzzle: Sensor v3, turn-off variant 1)	–	–	321	76	108	–
UUUUAACAUGAGGAUCACCCAUGUCAGGAUAUGCUAUUUUUUUUUUUUUUUUUUUUUUGCAGAAGGGACAUUUU [My solution] (puzzle: Exclusion 1)	–	–	29.4	78.5	55.7	–
UCUUAUUGCAAGGAUAUGCAAAUUAUUAUUAAUGCAGAAGGUGCUACAUGAGGAUCACCCAUGUUUCCGGGAAA [JR_E6_Sub041] (puzzle: Exclusion 6)	–	–	31.6	66.6	31.5	–
AACACUGCAGGAUAUACAUGAGGAUCACCCAUGUGAUCCGAUAACUCCCACGGGAGGAGUAGAAGGGUAAAAGG [Eternabot (Original) Solution 6] (Eterna round: R97, puzzle: Exclusion 3)	170	264	–	–	–	–
GUCCAGAUAGGAUAUUGUAAGGGCAACAUGAGGAUCACCCAUGUCGCAAAGAUCGCCCUUCGAGAAGGGUCCAAUU [Eternabot (L1) Solution 39] (Eterna round: R97, puzzle: Exclusion 5)	15.7	17.6	–	–	–	–
GUCGAGUGAGGAUAUGGUGAGUAGUGCCUGAGCGCUGCUCACCAGAAGGCACAUGAGGAUCACCCAUGUAUAAC [Mat - Exclusion 4 - Mod of JL - D14] (Eterna round: R96, puzzle: Exclusion 4)	58.1	26.1	–	–	–	19.7
UCACGGGACUGAGGAUAUACAUUUAUUAUUUUUGUAGAAGGCAGAAUGUUAGUUUUUUCACUAUACAUGAGGAUCACCCAUGUU [JR_ExcNG1_Sub084] (Eterna round: R96, puzzle: Exclusion NG 1)	–	–	–	–	–	20.6
GUUGGGUGAUGAUACAUGAGGAUCACCCAUGUUAAAAGUCAUUAGGAUAUCCCGACGGCCGGUUAGGAGAAGGAGUGACCAGGC [Maonma] (Eterna round: R96, puzzle: Exclusion NG 3)	636	429	–	–	–	285
CUGGUCCGAGGAUAUAUUUUGUGAAACAUGAGGAUCACCCAUGUAAUAAAAUGGAAAUAAAUAGAAGGCGGACUAG [Mat - Exclusion 5 - JL mod - D42] (puzzle: Exclusion 5)	–	–	20.8	25.2	24.2	–
GGGUUUCCGCAGGAUAUACGAUGGCGCAAUGUAGUAGAAGGGCGGACAUGAGGAUCACCCAUGUUCGUUCCUCG [EX6 C.25] (Eterna round: R97, puzzle: Exclusion 6)	26.4	14.6	–	–	–	–
GCCCGUGCGGAGGAUAUUGAUAUCCCAGUCUAUCAAGAAGGCUGCACAUGAGGAUCACCCAUGUGACCUGUGCU [Retiqule] (puzzle: Exclusion 6)	–	–	15.8	–	–	–
AAUAAACAUGAGGAUCACCCAUGUGAGGAUAUCGAAAUAAAUAAUAAAAUAAAUAAAACGAGAAGGCACAAUAA [JMF most obvious solution 3] (puzzle: Exclusion 1)	–	–	46.2	40.4	47.5	–
CUGAGCAGACGGAGAUCCAACAUGAGGAUCACCCAUGUCUCACAAGCUUUUUGCUUGUCUUAUUCUCCUCUGUUCUC [Leveasodi] (puzzle: Sensor v3, turn-off variant 1)	–	–	16.6	12.8	12.1	–
CCGACGUGAGGAUAUCCAUCUGGAUCAGACUAGAUCCUGAUGGAGAAGGCACAUGAGGAUCACCCAUGUCACGG [Eli 4x 4.48] (Eterna round: R97, puzzle: Exclusion 4)	413	140	–	–	–	–
AAACCUGCCCAUGACCGCAAGCUUUUUACUUGUCUUACCACAUGAGGAUCACCCAUGUGACAUGGGCUCCUUAUAAA [Ceedbe] (puzzle: Sensor v3, turn-off variant 2)	–	–	4.81	12.8	11.2	–
